Our source for the EC50 values is US20220096653A1, “CONJUGATE COMPRISING LIGAND AND CEACAM5 ANTIBODY FAB FRAGMENT” (ASTELLAS PHARMA INC., priority 2019, published 2022).

For this test, the target named is T1, CEACAM5 (R&D Systems, 4128-CM-050) (human, UniProt P06731 35-685).
T1 construct: Immobilised on the ELISA plate; also called human CEACAM5
T1 sequence (looked up): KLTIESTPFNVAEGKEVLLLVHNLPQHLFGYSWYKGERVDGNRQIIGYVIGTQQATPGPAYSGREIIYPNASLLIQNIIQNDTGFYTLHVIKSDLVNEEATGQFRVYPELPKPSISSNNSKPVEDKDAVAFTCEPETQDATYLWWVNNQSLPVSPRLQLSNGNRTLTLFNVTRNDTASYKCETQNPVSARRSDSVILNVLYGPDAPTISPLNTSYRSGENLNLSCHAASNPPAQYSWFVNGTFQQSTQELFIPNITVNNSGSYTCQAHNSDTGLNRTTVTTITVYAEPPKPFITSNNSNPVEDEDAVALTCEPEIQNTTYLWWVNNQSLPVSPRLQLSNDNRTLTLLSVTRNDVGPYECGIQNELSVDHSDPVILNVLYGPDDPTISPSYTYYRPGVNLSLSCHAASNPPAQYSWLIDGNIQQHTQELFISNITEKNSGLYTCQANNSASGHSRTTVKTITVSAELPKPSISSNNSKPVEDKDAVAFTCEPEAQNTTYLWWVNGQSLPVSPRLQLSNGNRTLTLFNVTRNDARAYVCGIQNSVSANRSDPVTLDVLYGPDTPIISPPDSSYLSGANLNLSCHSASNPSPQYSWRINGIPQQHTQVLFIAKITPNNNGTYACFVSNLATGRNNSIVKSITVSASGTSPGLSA
Put plainly: ELISA on immobilised CEACAM5, 4-parameter fit, duplicate. As to the method:
Each anti-human CEACAM5 antibody Fab fragment conjugate prepared in Example 2 was subjected to ELISA to evaluate the binding activity thereof to CEACAM5. In the present test, a phosphate buffer (Nacalai Tesque Inc., 0.1 mol/L-Phosphate Buffer Solution (pH 7.2)) prepared to 10 mM by diluting 10-fold with distilled water was used as a solvent for an antigen immobilization liquid, and 20×PBS/Tween 20 Buffer (Thermo Fisher Scientific Inc., 28352) diluted 20-fold with distilled water was used as a wash liquid. In addition, for bovine serum albumin (BSA) used in the present test, 30% Bovine Serum Albumin solution (Sigma-Aldrich, Inc., A9576-50ML) was added in an appropriate proportion for use. CEACAM5 (R&D Systems, 4128-CM-050) was diluted with a 10 mM phosphate buffer (pH 7.2) to 0.1 μg/mL, and added to a Nunc MaxiSorp White 384 plate (Nunc, 4603272) at 30 μL per well, and the plate was incubated overnight at 4° C. for immobilization. The CEACAM5 immobilization liquid was removed by reverse centrifugation, and then blocking was carried out by adding a PBS/Tween 20 buffer containing 5.0% BSA. Thereafter, the blocking solution was removed by reverse centrifugation, a solution of each CEACAM5 antibody Fab² fragment conjugate described above or a Fab² fragment having no labeling portion (PB009-01) as a control at about 10000 ng/mL was diluted in 14 steps by 3-fold dilution using a PBS/Tween 20 buffer containing 1.0% BSA, and 30 μL was added per well and incubated at room temperature for 60 minutes. The plate was washed 3 times with a PBS/Tween 20 buffer, and Horseradish Peroxidase (HRP)-labeled goat anti-human IgG (H+L chain) antibody (MBL Life Sciences, 206) diluted 1000-fold using a PBS/Tween 20 buffer containing 5.0% BSA was added at 30 μL per well and incubated at room temperature for 30 minutes. The plate was washed 3 times with a PBS/Tween 20 buffer, and ECL Prime Western Blotting DETECTION Reagent (GE Healthcare, RPN2232) as a substrate was added at 30 μL per well. The substrate was incubated at room temperature for 15 minutes, and then a signal value thereof was measured using an Envision counter (PerkinElmer, Inc.).
The test for each antibody was carried out in duplicate, and an EC₅₀ value was calculated using a 4-parameter logistic curve model.

B1: (Y-S1-X)p-Fab^2 with Y Gd/DOTA, S1 spacer (d), X -Gly-Lys*-Z2(#N)- (Fab, V domains shown)
VH: EVQLVESGGGLVQPGGSLRLSCAASGFNIRDTYMHWVRQAPGKGLEWVARIDPANGNSRYVPKFQGRFTISADTSRNTAYLQMNSLRAEDTAVYYCAPFGYYVSDYAMAYWGQGTLVTVSS
VL: DIQLTQSPSSLSASVGDRVTITCRAGESVDIFGVGFLHWYQQKPGKAPKLLIYRASNLESGIPSRFSGSGSRTDFTLTISSLQPEDFATYYCQQTNEDPYTFGQGTKVEIKR
modifications: labeling may sit on this chain; sites not stated; labeling portion (MW 954) on amino groups of the Fab, sites and chain not stated; 1-3 per Fab by MS
notes: also called Ex-No 26; conjugate 26
Take B1: a half-maximal effect (EC50) was put at 0.3 nM.

B2: [Gd/DOTA-NH-CH2-(1,3-Ph)-C(═O)-Met-Gly-Lys*-Z2(#S)]p-Fab^2 (Fab, V domains shown)
VH: EVQLVESGGGLVQPGGSLRLSCAASGFNIRDTYMHWVRQAPGKGLEWVARIDPANGNSRYVPKFQGRFTISADTSRNTAYLQMNSLRAEDTAVYYCAPFGYYVSDYAMAYWGQGTLVTVSS
VL: DIQLTQSPSSLSASVGDRVTITCRAGESVDIFGVGFLHWYQQKPGKAPKLLIYRASNLESGIPSRFSGSGSRTDFTLTISSLQPEDFATYYCQQTNEDPYTFGQGTKVEIKR
modifications: labeling may sit on this chain; sites not stated; labeling portion (MW 1190) bound via 2-iminothiolane-treated amino groups of the Fab, sites and chain not stated; 1-2 per Fab by MS
notes: also called Ex-No 24; Conjugate No. 24
The molecule B2 displayed an EC50 of 0.25 nM.

B3: (Y-S1-X)p-Fab^2 with Y Gd/DOTA, S1 spacer (e), X -Met-Gly-Lys*-Z2(#N)- (Fab, V domains shown)
VH: EVQLVESGGGLVQPGGSLRLSCAASGFNIRDTYMHWVRQAPGKGLEWVARIDPANGNSRYVPKFQGRFTISADTSRNTAYLQMNSLRAEDTAVYYCAPFGYYVSDYAMAYWGQGTLVTVSS
VL: DIQLTQSPSSLSASVGDRVTITCRAGESVDIFGVGFLHWYQQKPGKAPKLLIYRASNLESGIPSRFSGSGSRTDFTLTISSLQPEDFATYYCQQTNEDPYTFGQGTKVEIKR
modifications: labeling may sit on this chain; sites not stated; labeling portion (MW 1095) on amino groups of the Fab, sites and chain not stated; 1-2 per Fab by MS
notes: also called Ex-No 32; conjugate 32
For B3, the EC50 was found to be 0.37 nM.

B4: (Y-S1-X)p-Fab^2 with Y Gd/DOTA, S1 -NH-(CH2)3-C(═O)-, X -Gly-Tyr*-CH2-C(═O)-NH-(CH2)2-Z1(#N)- (Fab, V domains shown)
VH: EVQLVESGGGLVQPGGSLRLSCAASGFNIRDTYMHWVRQAPGKGLEWVARIDPANGNSRYVPKFQGRFTISADTSRNTAYLQMNSLRAEDTAVYYCAPFGYYVSDYAMAYWGQGTLVTVSS
VL: DIQLTQSPSSLSASVGDRVTITCRAGESVDIFGVGFLHWYQQKPGKAPKLLIYRASNLESGIPSRFSGSGSRTDFTLTISSLQPEDFATYYCQQTNEDPYTFGQGTKVEIKR
modifications: labeling may sit on this chain; sites not stated; labeling portion (MW 1045) on amino groups of the Fab, sites and chain not stated; 1-3 per Fab by MS
notes: also called Ex-No 36; conjugate 36
B4 gave a concentration for a half-maximal effect (EC50) of 0.38 nM.

B5: (Y-S1-X)p-Fab^2 with Y Gd/DOTA, S1 given only as drawing CHEM-US-00151, X -Met-Gly-Lys*-Z2(#N)- (Fab, V domains shown)
VH: EVQLVESGGGLVQPGGSLRLSCAASGFNIRDTYMHWVRQAPGKGLEWVARIDPANGNSRYVPKFQGRFTISADTSRNTAYLQMNSLRAEDTAVYYCAPFGYYVSDYAMAYWGQGTLVTVSS
VL: DIQLTQSPSSLSASVGDRVTITCRAGESVDIFGVGFLHWYQQKPGKAPKLLIYRASNLESGIPSRFSGSGSRTDFTLTISSLQPEDFATYYCQQTNEDPYTFGQGTKVEIKR
modifications: labeling may sit on this chain; sites not stated; labeling portion (MW 1101) on amino groups of the Fab, sites and chain not stated; 1-2 per Fab by MS
notes: also called Ex-No 34; conjugate 34
Turning to B5, a half-maximal effect (EC50) was put at 0.38 nM.

B6: (Y-S1-X)p-Fab^2 with Y Gd/DOTA, S1 - (bond), X -Gly-(diph-Ala)-Lys*-Z2(#S)- (Fab, V domains shown)
VH: EVQLVESGGGLVQPGGSLRLSCAASGFNIRDTYMHWVRQAPGKGLEWVARIDPANGNSRYVPKFQGRFTISADTSRNTAYLQMNSLRAEDTAVYYCAPFGYYVSDYAMAYWGQGTLVTVSS
VL: DIQLTQSPSSLSASVGDRVTITCRAGESVDIFGVGFLHWYQQKPGKAPKLLIYRASNLESGIPSRFSGSGSRTDFTLTISSLQPEDFATYYCQQTNEDPYTFGQGTKVEIKR
modifications: labeling may sit on this chain; sites not stated; labeling portion (MW 1149) on amino groups of the Fab, sites and chain not stated; 1-3 per Fab by MS
notes: also called Ex-No 30; conjugate 30
B6: the 50% effective concentration (EC50) was 0.31 nM.

B7: [Gd/DOTA-[2,5-(1,2,3,4-tetrahydroisoquinoline)]-C(═O)-Met-Gly-Lys*-Z2(#N)]p-Fab^2 (Fab, V domains shown)
VH: EVQLVESGGGLVQPGGSLRLSCAASGFNIRDTYMHWVRQAPGKGLEWVARIDPANGNSRYVPKFQGRFTISADTSRNTAYLQMNSLRAEDTAVYYCAPFGYYVSDYAMAYWGQGTLVTVSS
VL: DIQLTQSPSSLSASVGDRVTITCRAGESVDIFGVGFLHWYQQKPGKAPKLLIYRASNLESGIPSRFSGSGSRTDFTLTISSLQPEDFATYYCQQTNEDPYTFGQGTKVEIKR
modifications: labeling may sit on this chain; sites not stated; labeling portion (MW 1115) on amino groups of the Fab, sites and chain not stated; 1-2 per Fab by MS
notes: also called Ex-No 33; Conjugate No. 33
In turn, B7 came in with an EC50 of 0.33 nM.

B8: (Y-S1-X)p-Fab^2 with Y Gd/DOTA, S1 -NH-(CH2CH2O)3-CH2-C(═O)-NH-CH2-(1,3-Ph)-C(═O)-, X -Gly-Lys*-Z2(#S)- (Fab, V domains shown)
VH: EVQLVESGGGLVQPGGSLRLSCAASGFNIRDTYMHWVRQAPGKGLEWVARIDPANGNSRYVPKFQGRFTISADTSRNTAYLQMNSLRAEDTAVYYCAPFGYYVSDYAMAYWGQGTLVTVSS
VL: DIQLTQSPSSLSASVGDRVTITCRAGESVDIFGVGFLHWYQQKPGKAPKLLIYRASNLESGIPSRFSGSGSRTDFTLTISSLQPEDFATYYCQQTNEDPYTFGQGTKVEIKR
modifications: labeling may sit on this chain; sites not stated; labeling portion (MW 1248) on amino groups of the Fab, sites and chain not stated; 1-2 per Fab by MS
notes: also called Ex-No 25; conjugate 25
In the case of B8, a half-maximal response (EC50) required 0.32 nM.
